Test results from patent US20220306728A1 (VIR BIOTECHNOLOGY, published 2022).

Assays:
[1] = target: H1N1 representative viral strain (hemagglutinin), Example 6; assay: cell-based or functional assay
[2] = target: H3N2 representative viral strain (hemagglutinin), Example 6; assay: cell-based or functional assay

B1: FluAB_MLNS (antibody)
heavy: not shown
light: DIQMTQSPSSLSASVGDRVTITCRTSQSLSSYTHWYQQKPGKAPKLLIYAASSRGSGVPSRFSGSGSGTDFTLTISSLQPEDFATYYCQQSRTFGQGTKVEIKRTVAAPSVFIFPPSDEQLKSGTASVVCLLNNFYPREAKVQWKVDNALQSGNSQESVTEQDSKDSTYSLSSTLTLSKADYEKHKVYACEVTHQGLSSPVTKSFNRGEC
In the case of B1, the “IC50 of in vitro neutralization (MDCK cells, neuraminidase activity read-out)” value [1] is reported as 15.6 nM and the “IC50 of in vitro neutralization (MDCK cells, neuraminidase activity read-out)” value [2] is reported as 17.9 nM.
